# Results: US20230295310A1 (ABCELLERA BIOLOGICS, published 2023)
# Tests used:
# [1] = molecular target: T1, human CD3 expressed on cells (human, UniProt P07766 23-207; P04234 22-171; P09693 23-182); assay: flow cytometry, 25 nM
# T1 construct: whole, on cells; CD3 complex on Jurkat cells and on human primary T cells
# How it was run: (§1)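 Flow cytometric binding was measured after cells were incubated with antibody (25 nM, PBS+2% FBS) at 4° C for 30 minutes. Signals were normalized to isotype to yield FOI, with ≥10 scored positive.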
# [2] = molecular target: T2, cynomolgus monkey CD3 expressed on primary T cells (cynomolgus monkey, UniProt Q95LI5 22-198; Q95LI8 22-171; Q95LI7 23-181); assay: flow cytometry, 25 nM, cyno primary T cells
# T2 construct: whole, on cells; CD3 complex on purified cynomolgus monkey T cells; also called cyno CD3
# T2 sequence (Q95LI5 22-198, chain 1 of 3): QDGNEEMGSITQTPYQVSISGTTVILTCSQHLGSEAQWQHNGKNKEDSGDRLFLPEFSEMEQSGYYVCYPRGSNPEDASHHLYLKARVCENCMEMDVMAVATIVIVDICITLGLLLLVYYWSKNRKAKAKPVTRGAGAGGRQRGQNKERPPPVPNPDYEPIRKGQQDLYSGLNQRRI
# T2 sequence (Q95LI8 22-171, chain 2 of 3): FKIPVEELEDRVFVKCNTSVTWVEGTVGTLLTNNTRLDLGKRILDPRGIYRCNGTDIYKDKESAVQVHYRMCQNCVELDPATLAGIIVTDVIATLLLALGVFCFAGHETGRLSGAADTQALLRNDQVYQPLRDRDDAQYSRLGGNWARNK
# T2 sequence (Q95LI7 23-181, chain 3 of 3): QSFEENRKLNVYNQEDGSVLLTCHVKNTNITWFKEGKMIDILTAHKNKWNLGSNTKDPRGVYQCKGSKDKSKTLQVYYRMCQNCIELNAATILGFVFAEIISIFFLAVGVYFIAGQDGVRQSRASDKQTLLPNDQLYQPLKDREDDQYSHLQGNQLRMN
# How it was run: as §1
# [3] = molecular target: T1, human CD3 expressed on cells; assay: flow cytometry, 25 nM, Jurkat cells (human primary T cells in c4 also <10)
# Method: Purified antibodies were confirmed to bind CD3 expressed on cells using the CytoFLEX S or LX flow cytometers (Beckman Coulter). Antibodies were diluted to 25 nM in FACS buffer (PBS+2% FBS) and were incubated with CD3-expressing cells for 30 minutes at 4° C. […] The median fluorescence intensity of the binding signal for each antibody was normalized to the isotype control to obtain a fold over isotype value. An antibody with a fold over isotype (FOI) of ≥10 was considered to be positive for binding.
# T1 sequence (P07766 23-207, chain 1 of 3): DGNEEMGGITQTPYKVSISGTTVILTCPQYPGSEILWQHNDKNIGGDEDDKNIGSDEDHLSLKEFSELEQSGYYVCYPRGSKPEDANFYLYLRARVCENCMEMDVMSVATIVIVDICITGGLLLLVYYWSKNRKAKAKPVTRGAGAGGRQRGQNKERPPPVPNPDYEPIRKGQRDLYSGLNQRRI
# T1 sequence (P04234 22-171, chain 2 of 3): as the sequence (Q95LI8 22-171, chain 2 of 3) above, with V5I, K15N, V20I, T32S, N33D, N34I, A64T, N74S, L83V, R141H counted along it
# T1 sequence (P09693 23-182, chain 3 of 3): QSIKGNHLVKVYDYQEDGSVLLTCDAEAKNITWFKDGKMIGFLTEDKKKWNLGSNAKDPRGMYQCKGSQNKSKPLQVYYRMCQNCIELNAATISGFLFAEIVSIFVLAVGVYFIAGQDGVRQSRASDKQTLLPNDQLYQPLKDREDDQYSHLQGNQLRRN
Human primary T Cell Binding (FOI) [1],binding result [2],binding result [3],Binder
0.796 FOI,no binding (tested: FOI >=10 = positive),no binding (tested: FOI >=10 = positive),"mAb 138 (antibody, V domains shown) VH: QVLLVQSGPEVKKPGASVKVSCKASGYTFTDYYLHWVRQAPGQGLDWMGWINPKSGGTRNAQKFQGRVTMTRDTSISTAYMDLTRLRSDDTAVYYCARVGGELLFDYWGQGTLVTVSS VL: DIVMTQSPLSLSVTPGEPASISCRSSQSLLHSDGYNYLDWFLQKPGQSPHLLIFLGSNRASGVPDRFSGSGSGTDFTLKISRVEAEDVGIYYCMQALQTPLTFGGGTKVEIK"
0.678 FOI,no binding (tested: FOI >=10 = positive),no binding (tested: FOI >=10 = positive),"mAb 139 (antibody, V domains shown) VH: QVQLVESGGGVVQPGRSLRLSCAASGFTFSSYAMHWVRQAPGKGLEWVAVIWFDGTNKYYTDSVRGRFTISRDNSKNTLYLQMNSLRAEDTAVYYCATERGITETTRGFDYWGQGTLVTVSS VL: DIQMTQSPSSLSASVGDRVTITCRTSQGIGNDLDWYQQNPGKAPKRLIYATSNLQSGVPSRFSGSGSGTEFTLTISGLQPEDFTTYYCLRHNSYPYTFGQGTKLEIT"
0.821 FOI,no binding (tested: FOI >=10 = positive),no binding (tested: FOI >=10 = positive),"mAb 135 (antibody, V domains shown) VH: EVQLVESGGGLVKTGGSLRLSCVASGFSFKKAWMNWVRQAPGKGLEWVGRIKRNSDGGTTDYAAPVKGRFTLSRDDSKNTLYLQMNSLKTEDTAVYYCTTLDSSSWYVGYYYMDVWGKGTTVTVSS VL: not shown"
0.835 FOI,no binding (tested: FOI >=10 = positive),no binding (tested: FOI >=10 = positive),"mAb 124 (antibody, V domains shown) VH: EVQVVESGGDLVQPGGSLRLSCAASGFTFSTYAMTWVRQAPGKGLEWISTISGSGHNTYYADSVKGRFTISRGNSKNTLFLQMNSLRAEDTAVYYCAKENCGGDCLYYMDVWGKGTTVTVSS VL: DIQMTQSPSSLSASVGDRVTITCRASQSISNYLNWYQQKSGKAPKLLIYFASSLQSGVPSRFGGSGAGTDFTLTISSLQPEDFATYSCQQSYSTPLTFGGGTKVEIK"
1.58 FOI,no binding (tested: FOI >=10 = positive),no binding (tested: FOI >=10 = positive),"mAb 147 (antibody, V domains shown) VH: QVQLVQSGAEVKKPGASVKVSCKASGYTFTAYHTHWVRQAPGQGLEWMGWIYPKSGRTTYTQKFQGRVTMTRDTSISTVYMELSRLKSDDTAVYYCARVGALLFDYWGQGTLVTVSS VL: not shown"
1.44 FOI,no binding (tested: FOI >=10 = positive),no binding (tested: FOI >=10 = positive),"mAb 148 (antibody, V domains shown) VH: QVQLVQSGAEVKKPGASVKVSCKASGYTFTAYHTHWVRQAPGQGLEWMGWIYPKSGRTTYTQKFQGRVTMTRDTSISTVYMELSRLKSDDTAVYYCARVGALLFDYWGQGTLVTVSS VL: EIVLTQSPATLSLSPGERATLSCRASQSVSSYLAWYQQKPGQAPRLLIYDASNRATGIPARFSGSGSGTDFTLTISSLEPEDFAVYYCQQRSNWPFTFGPGTKVDIK"
1.68 FOI,no binding (tested: FOI >=10 = positive),no binding (tested: FOI >=10 = positive),"mAb 150 (antibody, V domains shown) VH: QVQLVQSGAEVKKPGASVKVSCKASGYTFTAYHTHWVRQAPGQGLEWMGWIYPKSGRTTYTQKFQGRVTMTRDTSISTVYMELSRLKSDDTAVYYCARVGALLFDYWGQGTLVTVSS VL: EIVLTQSPATLSLSPGERATLSCRASQSVSSYLAWYQQKPGQAPRLLIYDASNRATGIPARFSGSGSGTDFTLTISSLEPEDFAVYYCQQRSNWPLTFGGGTKVEIK"
